Assay results from article PMC8131325 (The Journal of Biological Chemistry, 2021).

B1: αSynP130-140 (peptide)
peptide: EEGYQDYEPEA
notes: also called α-synuclein decoy peptide; C-terminal peptide of αSyn; source: synthetic peptide (SCRUM Inc or BEX Co Ltd)
B2: αSynP130-140 Y133F/Y136W (peptide)
peptide: EEGFQDWEPEA
notes: source: synthetic peptide (SCRUM Inc or BEX Co Ltd)
B3: αSynP130-140 Y133W/Y136W (peptide)
peptide: EEGWQDWEPEA
notes: as for B2
B4: αSynP130-140 Y136W (peptide)
peptide: EEGYQDWEPEA
notes: as for B2
B5: αSynP130-140 Y136F (peptide)
peptide: EEGYQDFEPEA
notes: as for B2
B6: αSynP130-140 Y133F (peptide)
peptide: EEGFQDYEPEA
notes: as for B2
B7: αSynP130-140 Y133F/Y136F (peptide)
peptide: EEGFQDFEPEA
notes: as for B2

Target: T1, fatty acid binding protein 3 (UniProt P05413 1-133)
T1 construct: synthetic gene (Invitrogen GeneArt) in pET28a between NcoI and XhoI; Untagged FABP3; also called FABP3; H-FABP; source: E. coli BLR(DE3), purified (Resource-Q anion exchange column), delipidized, lyophilized
T1 sequence (P05413 whole entry): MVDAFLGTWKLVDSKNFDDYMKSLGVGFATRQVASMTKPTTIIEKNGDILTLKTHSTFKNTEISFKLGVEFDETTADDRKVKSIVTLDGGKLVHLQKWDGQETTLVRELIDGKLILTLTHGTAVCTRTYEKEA
Assay: other fluorescence titration; ANS fluorescence (5 μM ANS, emission at 460 nm) of 2 μM FABP3 with increasing concentrations of αSyn or αSynP130-140; 50 mM Tris-HCl pH 7.4
Settings: both partners purified

stoichiometry N	Binder
~1	B1

Target: T2, FABP3 with N-terminal His6 tag (UniProt P05413 1-133)
T2 construct: synthetic gene (Invitrogen GeneArt) in pET28a between NdeI and XhoI; Apo (delipidized) form; held on the Ni-NTA quartz sensor by the His6 tag; also called His6-FABP3; not shown: His6, N-terminal, kept
T2 sequence (P05413 whole entry): as above
Assay: quartz crystal microbalance (QCM); His6-FABP3 (or FABP3 F16S) immobilised on the gold-plated quartz sensor through Ni-NTA groups; αSyn, its variants or peptides added at varying concentrations; room temperature; 50 mM Tris-HCl pH 7.4; kobs = koff + kon[αSyn], Kd from kon and koff (AQUA 2.0)
Settings: both partners purified

Kd [nM]	koff [s⁻¹]	kon [M⁻¹ s⁻¹]	Binder
6.1	0.0012	200000	B1
6.1	0.0019	320000	B2
6.2	0.0015	240000	B3
6.3	0.0024	380000	B4
7.7	0.0037	480000	B5
2	0.0015	750000	B6
2.1	0.0011	540000	B7
